Source: paper PMC4856987

T1: BmSTPR (FMBP-1 STPR domain) (Bombyx mori, UniProt Q5FBS0 99-193)
T1 sequence: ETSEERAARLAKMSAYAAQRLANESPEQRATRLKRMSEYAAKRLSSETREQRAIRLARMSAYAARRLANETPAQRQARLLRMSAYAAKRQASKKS

T2: BmSTPR with R1 deleted (R2-R4) (Bombyx mori, UniProt Q5FBS0 122-193)
T2 sequence: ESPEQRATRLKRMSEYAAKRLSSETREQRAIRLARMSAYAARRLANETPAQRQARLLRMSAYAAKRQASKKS

B1: (auac/gtat)4 (dsDNA)
DNA 1: AUACAUACAUACAUAC
DNA 2: GTATGTATGTATGTAT
modifications: t2 of each unit to (deoxy)uridylate
B2: 20-bp (+290) (dsDNA)
DNA 1: AGTATTTACATAGATTCATC
DNA 2: GATGAATCTATGTAAATACT
B3: 18-bp DNA, (atac)4 plus one terminal nt each side (dsDNA)
DNA 1: CATACATACATACATACA
DNA 2: TGTATGTATGTATGTATG
B4: (gcca)3 (dsDNA)
DNA 1: GCCAGCCAGCCA
DNA 2: TGGCTGGCTGGC

Experiments:
[1] = molecular target: T1, BmSTPR (FMBP-1 STPR domain); assay: ITC
[2] = molecular target: T2, BmSTPR with R1 deleted (R2-R4); assay: ITC
[3] = molecular target: T1, BmSTPR (FMBP-1 STPR domain); assay: X-ray crystal structure

Binder	Kd [1] [nM]	also measured
B1	183	–
B2	–	Kd [2]: 547 nM
B3	–	binding result [3]: binds
B4	44600 ± 14300	–
